According to patent US20030100510A1 (KANSAS UNIVERSITY MEDICAL CENTER, published 2003):

Biological target: the molecule itself
Experiment: crystal structure of the NC1 hexamer, 2.0 Å
Description: The heavy atom soak screens were carried out at beamlines 1-5 and 9-2 of Stanford Syncrhortron Radiation Laboratory (SSRL) and beamline X8C of National Synchrotron Light Source (NSLS) at Brookhaven National Laboratory. The Br-MAD data sets used in this study were collected at SSRL and processed using DENZO and […] programs of HKL2000 suite (39). The Br⁻ sites were located using SOLVE program (40) and 37 highest peaks (>6σ) were used for phasing the reflections at 2.2 Å resolution. The resulting phases were improved by solvent flattening using RESOLVE (41) and the electron density map was calculated using FFT program of CCP4 suite (42). Polypeptides of two α1 chains and one α2 chain (chains A-C) were traced using the TOM FRODO graphics program (43). The complete asymmetric unit was generated using non-crystallographic symmetry (“NCS”) relations obtained from Br⁻ sites—first the second trimer (chains D-F) was generated to complete one hexamer and then the second hexamer (chains G-L) was generated from the first hexamer. […] The structure was analyzed using SETOR(45), GRASP(46), and SURFNET(47) graphics software packages and various utility programs in CCP4 suite. The hexamer interface was analyzed using HBPLUS(48) and protein-protein interaction web server (http:/www.biochem.uc1.ac.uk/bsm/PP/server/). […]

Protein | binding result
type IV collagen α1 chain NC1 domain (bovine lens basement membrane) (other, UniProt Q7SIB2 1441-1669, looked up, domain: NC1; 5-6 N-terminal and 2 C-terminal residues are disordered in the map; also called α1 NC1; α1(IV) NC1) SVDHGFLVTRHSQTTDDPQCPPGTKILYHGYSLLYVQGNERAHGQDLGTAGSCLRKFSTMPFLFCNINNVCNFASRNDYSYWLSTPEPMPMSMAPITGENIRPFISRCAVCEAPAMVMAVHSQTIQIPQCPTGWSSLWIGYSFVMHTSAGAEGSGQALASPGSCLEEFRSAPFIECHGRGTCNYYANAYSFWLATIERSEMFKKPTPSTLKAGELRTHVSRCQVCMRRT | binds
type IV collagen (α1)2.α2 NC1 trimer (bovine lens basement membrane) (other, domain: NC1; Two such trimers make the [(α1)2.α2]2 NC1 hexamer that was crystallized. m3 is used for facts told of the trimer-trimer (hexamer) interface as a whole; also called protomer NC1 trimer; half of the [(α1)2.α2]2 NC1 hexamer) chain 1: SVDHGFLVTRHSQTTDDPQCPPGTKILYHGYSLLYVQGNERAHGQDLGTAGSCLRKFSTMPFLFCNINNVCNFASRNDYSYWLSTPEPMPMSMAPITGENIRPFISRCAVCEAPAMVMAVHSQTIQIPQCPTGWSSLWIGYSFVMHTSAGAEGSGQALASPGSCLEEFRSAPFIECHGRGTCNYYANAYSFWLATIERSEMFKKPTPSTLKAGELRTHVSRCQVCMRRT chain 2: ISIGYLLVKHSQTDQEPMCPVGMNKLWSGYSLLYFEGQEKAHNQDLGLAGSCLARFSTMPFLYCNPGDVCYYASRNDKSYWLSTTAPLPMMPVAEEDIRPYISRCSVCEAPAVAIAVHSQDVSIPHCPAGWRSLWIGYSFLMHTAAGDEGGGQSLVSPGSCLEDFRATPFIECNGARGTCHYYANKYSFWLTTIPEQSFQGTPSADTLKAGLIRTHISRCQVCMKNL | binds
